Measurements taken from patent US20200317779A1 (GREEN CROSS, published 2020).

Legend:
[1] = molecular target: T1, CD3 on monkey T cells (monkey splenocytes) (monkey); experiment: flow cytometry on monkey splenocytes, 1 µg antibody per 10^6 cells in 100 µl, PE anti-human IgG detection
T1 construct: whole, on cells; The target is printed as 'monkey T cells'
Method: Specifically, monkey splenocytes were prepared at 10⁶ cells in 100 μl FACS solution per antibody sample, and then 1 μg of antibody was used to treat the cells. The resultant was stored for 25 minutes in the dark at 4° C. Subsequently, treatment with 3 ml of FACS buffer was performed, and centrifugation was performed at 2,000 rpm for 3 minutes. Then, the supernatant was discarded.
(§1) Next, 100 μl FACS buffer containing 1 μg of PE-conjugated human IgG antibody was used to treat the cells, and the resultant was stored for 25 minutes in the dark at 4° C. Subsequently, treatment with 3 ml of FACS buffer was performed, and centrifugation was performed at 2,000 rpm for 3 minutes. Then, the supernatant was discarded.
(§2) The cells were treated with a 4% formaldehyde solution, stored in the dark at 4° C. for 30 minutes, and then treated with 3 ml of FACS buffer. Centrifugation was performed at 2,000 rpm for 3 minutes, and then the supernatant was discarded. Treatment with 350 μl of FACS buffer was performed, and a flow cytometer was used to perform affinity analysis of the antibodies for the […]. The analysis results are illustrated in FIG. 2.

[2] = molecular target: T2, CD3 on human T cells (H9 cells, ATCC HTB-176) (human); experiment: flow cytometry on H9 cells, 1 µg antibody per 2x10^5 cells in 100 µl, PE anti-human IgG detection
T2 construct: whole, on cells; The target is printed as 'human T cells'
T2 sequence (P07766 23-207, chain 1 of 3): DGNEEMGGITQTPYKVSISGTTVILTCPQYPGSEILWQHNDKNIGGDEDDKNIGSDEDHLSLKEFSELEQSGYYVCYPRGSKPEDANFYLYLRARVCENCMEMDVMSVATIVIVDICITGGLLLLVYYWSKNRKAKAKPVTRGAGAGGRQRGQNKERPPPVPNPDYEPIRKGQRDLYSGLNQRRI
T2 sequence (P04234 22-171, chain 2 of 3, further chain): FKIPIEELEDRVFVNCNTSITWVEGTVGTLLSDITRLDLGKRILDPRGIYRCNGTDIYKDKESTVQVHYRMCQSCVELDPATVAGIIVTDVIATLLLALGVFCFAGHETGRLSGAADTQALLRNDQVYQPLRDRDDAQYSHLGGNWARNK
T2 sequence (P09693 23-182, chain 3 of 3, further chain): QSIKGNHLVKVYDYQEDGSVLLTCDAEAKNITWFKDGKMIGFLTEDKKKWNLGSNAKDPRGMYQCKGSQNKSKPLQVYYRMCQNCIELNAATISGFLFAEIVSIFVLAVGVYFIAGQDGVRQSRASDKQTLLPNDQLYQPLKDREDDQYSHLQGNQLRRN
Method: The resultant was stored for 25 minutes in the dark at 4° C. Subsequently, treatment with 3 ml of FACS buffer was performed, and centrifugation was performed at 2,000 rpm for 3 minutes. Then, the supernatant was discarded.
as §1, with “phycoerythrin (PE)-conjugated” for “PE-conjugated”
as §2, with “1.” for “2.”

B1: H16 (antibody, human IgG1, lambda, L234A L235A, V domains shown)
VH: EVQLVESGGGLVQPGGSLKLSCAASGFTFNTYAMNWVRQASGKGLEWVARIRSKYNNYATYYADSVKDRFTISRDDSQSTLYLQMNSLKTEDTAVYYCVRHGNFGNSYVSWFAYWGQGTLVTVSS
VL: QAVVTQEPSLTVSPGGTVTLTCRSSTGAVTTSNYANWVQQKPGQAPRGLIGGTNKRAPWTPARFSGSLLGDKAALTLSGAQPEDEAEYYCALWYSNLWVFGGGTKLTVLG
notes: humanized SP34 IgG1, lambda
Mean : Comp-PE-A [1]: 13400 | Mean : PE-A [2]: 9350

B2: B15 (antibody, human IgG1, lambda, L234A L235A, V domains shown)
VH: EVQLVESGGGLVQPGGSLKLSCAASGFTFNTYAMNWVRQASGKGLEWVGRIRSKYNNYATYYADSVKDRFTISRDDSKNTLYLQMNSLKTEDTAVYYCVRHGNFGNSYVSWFAYWGQGTLVTVSS
VL: QAVVTQEPSLTVSPGGTVTLTCRSSTGAVTTSNYANWVQQKPGQAPRGLIGGTNKRAPWTPARFSGSLLGGKAALTLSGAQPEDEAEYYCALWYSNLWVFGGGTKLTVLG
notes: humanized SP34 IgG1, lambda
Mean : Comp-PE-A [1]: 16300 | Mean : PE-A [2]: 22900

B3: D15 (antibody, human IgG1, lambda, L234A L235A, V domains shown)
VH: EVQLVESGGGLVQPGGSLKLSCAASGFTFNTYAMNWVRQASGKGLEWVGRIRSKYNNYATYYADSVKDRFTISRDDSQSTLYLQMNSLKTEDTAVYYCVRHGNFGNSYVSWFAYWGQGTLVTVSS
VL: QAVVTQEPSLTVSPGGTVTLTCRSSTGAVTTSNYANWVQQKPGQAPRGLIGGTNKRAPWTPARFSGSLLGGKAALTLSGAQPEDEAEYYCALWYSNLWVFGGGTKLTVLG
notes: humanized SP34 IgG1, lambda
Mean : Comp-PE-A [1]: 18600 | Mean : PE-A [2]: 22600

B4: A08 (antibody, human IgG1, lambda, L234A L235A, V domains shown)
VH: EVQLVESGGGLVQPGGSLKLSCAASGFTFNTYAMNWVRQASGKGLEWVGRIRSKYNNYATYYADSVKDRFTISRDDSKNTAYLQMNSLKTEDTAVYYCVRHGNFGNSYVSWFAYWGQGTLVTVSS
VL: QAVVTQEPSLTVSPGGTVTLTCRSSTGAVTTSNYANWFQQKPGQAPRGLIGGTNKRAPWTPARFSGSLLGDKAALTLSGAQPEDEAEYYCALWYSNLWVFGGGTKLTVLG
notes: humanized SP34 IgG1, lambda; also called A8
Mean : Comp-PE-A [1]: 5530 | Mean : PE-A [2]: 3080

B5: A15 (antibody, human IgG1, lambda, L234A L235A, V domains shown)
VH: EVQLVESGGGLVQPGGSLKLSCAASGFTFNTYAMNWVRQASGKGLEWVGRIRSKYNNYATYYADSVKDRFTISRDDSKNTAYLQMNSLKTEDTAVYYCVRHGNFGNSYVSWFAYWGQGTLVTVSS
VL: QAVVTQEPSLTVSPGGTVTLTCRSSTGAVTTSNYANWVQQKPGQAPRGLIGGTNKRAPWTPARFSGSLLGGKAALTLSGAQPEDEAEYYCALWYSNLWVFGGGTKLTVLG
notes: humanized SP34 IgG1, lambda
Mean : Comp-PE-A [1]: 15800 | Mean : PE-A [2]: 24000

B6: C08 (antibody, human IgG1, lambda, L234A L235A, V domains shown)
VH: EVQLVESGGGLVQPGGSLKLSCAASGFTFNTYAMNWVRQASGKGLEWVGRIRSKYNNYATYYADSVKDRFTISRDDSQSTAYLQMNSLKTEDTAVYYCVRHGNFGNSYVSWFAYWGQGTLVTVSS
VL: QAVVTQEPSLTVSPGGTVTLTCRSSTGAVTTSNYANWFQQKPGQAPRGLIGGTNKRAPWTPARFSGSLLGDKAALTLSGAQPEDEAEYYCALWYSNLWVFGGGTKLTVLG
notes: humanized SP34 IgG1, lambda; also called C8
Mean : Comp-PE-A [1]: 5670 | Mean : PE-A [2]: 4680

B7: F15 (antibody, human IgG1, lambda, L234A L235A, V domains shown)
VH: EVQLVESGGGLVQPGGSLKLSCAASGFTFNTYAMNWVRQASGKGLEWVARIRSKYNNYATYYADSVKDRFTISRDDSKNTLYLQMNSLKTEDTAVYYCVRHGNFGNSYVSWFAYWGQGTLVTVSS
VL: QAVVTQEPSLTVSPGGTVTLTCRSSTGAVTTSNYANWVQQKPGQAPRGLIGGTNKRAPWTPARFSGSLLGGKAALTLSGAQPEDEAEYYCALWYSNLWVFGGGTKLTVLG
notes: humanized SP34 IgG1, lambda
Mean : Comp-PE-A [1]: 14700 | Mean : PE-A [2]: 11200

B8: B07 (antibody, human IgG1, lambda, L234A L235A, V domains shown)
VH: EVQLVESGGGLVQPGGSLKLSCAASGFTFNTYAMNWVRQASGKGLEWVGRIRSKYNNYATYYADSVKDRFTISRDDSKNTLYLQMNSLKTEDTAVYYCVRHGNFGNSYVSWFAYWGQGTLVTVSS
VL: QAVVTQEPSLTVSPGGTVTLTCRSSTGAVTTSNYANWFQQKPGQAPRGLIGGTNKRAPWTPARFSGSLLGGKAALTLSGAQPEDEAEYYCALWYSNLWVFGGGTKLTVLG
notes: humanized SP34 IgG1, lambda; also called B7
Mean : Comp-PE-A [1]: 4790 | Mean : PE-A [2]: 4810

B9: Mouse human chimeric SP34 IgG1 antibody (antibody, V domains shown)
VH: EVQLVESGGGLVQPKGSLKLSCAASGFTFNTYAMNWVRQAPGKGLEWVARIRSKYNNYATYYADSVKDRFTISRDDSQSILYLQMNNLKTEDTAMYYCVRHGNFGNSYVSWFAYWGQGTLVTVSS
VL: QAVVTQESALTTSPGETVTLTCRSSTGAVTTSNYANWVQEKPDHLFTGLIGGTNKRAPGVPARFSGSLIGDKAALTITGAQTEDEAIYFCALWYSNLWVFGGGTKLTVLG
Mean : Comp-PE-A [1]: 19800

B10: E15 (antibody, human IgG1, lambda, L234A L235A, V domains shown)
VH: EVQLVESGGGLVQPGGSLKLSCAASGFTFNTYAMNWVRQASGKGLEWVARIRSKYNNYATYYADSVKDRFTISRDDSKNTAYLQMNSLKTEDTAVYYCVRHGNFGNSYVSWFAYWGQGTLVTVSS
VL: QAVVTQEPSLTVSPGGTVTLTCRSSTGAVTTSNYANWVQQKPGQAPRGLIGGTNKRAPWTPARFSGSLLGGKAALTLSGAQPEDEAEYYCALWYSNLWVFGGGTKLTVLG
notes: humanized SP34 IgG1, lambda
Mean : Comp-PE-A [1]: 13500 | Mean : PE-A [2]: 12800

B11: C15 (antibody, human IgG1, lambda, L234A L235A, V domains shown)
VH: EVQLVESGGGLVQPGGSLKLSCAASGFTFNTYAMNWVRQASGKGLEWVGRIRSKYNNYATYYADSVKDRFTISRDDSQSTAYLQMNSLKTEDTAVYYCVRHGNFGNSYVSWFAYWGQGTLVTVSS
VL: QAVVTQEPSLTVSPGGTVTLTCRSSTGAVTTSNYANWVQQKPGQAPRGLIGGTNKRAPWTPARFSGSLLGGKAALTLSGAQPEDEAEYYCALWYSNLWVFGGGTKLTVLG
notes: humanized SP34 IgG1, lambda
Mean : Comp-PE-A [1]: 17800 | Mean : PE-A [2]: 23100

B12: D08 (antibody, human IgG1, lambda, L234A L235A, V domains shown)
VH: EVQLVESGGGLVQPGGSLKLSCAASGFTFNTYAMNWVRQASGKGLEWVGRIRSKYNNYATYYADSVKDRFTISRDDSQSTLYLQMNSLKTEDTAVYYCVRHGNFGNSYVSWFAYWGQGTLVTVSS
VL: QAVVTQEPSLTVSPGGTVTLTCRSSTGAVTTSNYANWFQQKPGQAPRGLIGGTNKRAPWTPARFSGSLLGDKAALTLSGAQPEDEAEYYCALWYSNLWVFGGGTKLTVLG
notes: humanized SP34 IgG1, lambda; also called D8
Mean : Comp-PE-A [1]: 5120 | Mean : PE-A [2]: 4220

B13: G15 (antibody, human IgG1, lambda, L234A L235A, V domains shown)
VH: EVQLVESGGGLVQPGGSLKLSCAASGFTFNTYAMNWVRQASGKGLEWVARIRSKYNNYATYYADSVKDRFTISRDDSQSTAYLQMNSLKTEDTAVYYCVRHGNFGNSYVSWFAYWGQGTLVTVSS
VL: QAVVTQEPSLTVSPGGTVTLTCRSSTGAVTTSNYANWVQQKPGQAPRGLIGGTNKRAPWTPARFSGSLLGGKAALTLSGAQPEDEAEYYCALWYSNLWVFGGGTKLTVLG
notes: humanized SP34 IgG1, lambda
Mean : Comp-PE-A [1]: 17300 | Mean : PE-A [2]: 11600

B14: G16 (antibody, human IgG1, lambda, L234A L235A, V domains shown)
VH: EVQLVESGGGLVQPGGSLKLSCAASGFTFNTYAMNWVRQASGKGLEWVARIRSKYNNYATYYADSVKDRFTISRDDSQSTAYLQMNSLKTEDTAVYYCVRHGNFGNSYVSWFAYWGQGTLVTVSS
VL: QAVVTQEPSLTVSPGGTVTLTCRSSTGAVTTSNYANWVQQKPGQAPRGLIGGTNKRAPWTPARFSGSLLGDKAALTLSGAQPEDEAEYYCALWYSNLWVFGGGTKLTVLG
notes: humanized SP34 IgG1, lambda
Mean : Comp-PE-A [1]: 14000 | Mean : PE-A [2]: 10300

B15: B08 (antibody, human IgG1, lambda, L234A L235A, V domains shown)
VH: EVQLVESGGGLVQPGGSLKLSCAASGFTFNTYAMNWVRQASGKGLEWVGRIRSKYNNYATYYADSVKDRFTISRDDSKNTLYLQMNSLKTEDTAVYYCVRHGNFGNSYVSWFAYWGQGTLVTVSS
VL: QAVVTQEPSLTVSPGGTVTLTCRSSTGAVTTSNYANWFQQKPGQAPRGLIGGTNKRAPWTPARFSGSLLGDKAALTLSGAQPEDEAEYYCALWYSNLWVFGGGTKLTVLG
notes: humanized SP34 IgG1, lambda; also called B8
Mean : Comp-PE-A [1]: 4590 | Mean : PE-A [2]: 3780

B16: C07 (antibody, human IgG1, lambda, L234A L235A, V domains shown)
VH: EVQLVESGGGLVQPGGSLKLSCAASGFTFNTYAMNWVRQASGKGLEWVGRIRSKYNNYATYYADSVKDRFTISRDDSQSTAYLQMNSLKTEDTAVYYCVRHGNFGNSYVSWFAYWGQGTLVTVSS
VL: QAVVTQEPSLTVSPGGTVTLTCRSSTGAVTTSNYANWFQQKPGQAPRGLIGGTNKRAPWTPARFSGSLLGGKAALTLSGAQPEDEAEYYCALWYSNLWVFGGGTKLTVLG
notes: humanized SP34 IgG1, lambda; also called C7
Mean : Comp-PE-A [1]: 5380 | Mean : PE-A [2]: 4620

B17: D07 (antibody, human IgG1, lambda, L234A L235A, V domains shown)
VH: EVQLVESGGGLVQPGGSLKLSCAASGFTFNTYAMNWVRQASGKGLEWVGRIRSKYNNYATYYADSVKDRFTISRDDSQSTLYLQMNSLKTEDTAVYYCVRHGNFGNSYVSWFAYWGQGTLVTVSS
VL: QAVVTQEPSLTVSPGGTVTLTCRSSTGAVTTSNYANWFQQKPGQAPRGLIGGTNKRAPWTPARFSGSLLGGKAALTLSGAQPEDEAEYYCALWYSNLWVFGGGTKLTVLG
notes: humanized SP34 IgG1, lambda; also called D7
Mean : Comp-PE-A [1]: 6760 | Mean : PE-A [2]: 3770
